Test results: patent US20180258163A1 (Chugai, published 2018)
Changes are numbered by the printed parent chain.

T1: soluble human FcγRIIb (human, UniProt P31994 43-217, limits assumed)
T1 construct: soluble His-tagged form; also called hFcγRIIb
T1 sequence (looked up): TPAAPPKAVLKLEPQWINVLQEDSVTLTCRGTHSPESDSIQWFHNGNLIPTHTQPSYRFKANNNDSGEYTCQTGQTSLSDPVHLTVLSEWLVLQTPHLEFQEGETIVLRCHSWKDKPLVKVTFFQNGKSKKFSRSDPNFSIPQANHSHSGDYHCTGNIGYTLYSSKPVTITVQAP

B1: Ab1H-P600/Ab1L (antibody, human IgG1, kappa, name in EU numbering)
heavy: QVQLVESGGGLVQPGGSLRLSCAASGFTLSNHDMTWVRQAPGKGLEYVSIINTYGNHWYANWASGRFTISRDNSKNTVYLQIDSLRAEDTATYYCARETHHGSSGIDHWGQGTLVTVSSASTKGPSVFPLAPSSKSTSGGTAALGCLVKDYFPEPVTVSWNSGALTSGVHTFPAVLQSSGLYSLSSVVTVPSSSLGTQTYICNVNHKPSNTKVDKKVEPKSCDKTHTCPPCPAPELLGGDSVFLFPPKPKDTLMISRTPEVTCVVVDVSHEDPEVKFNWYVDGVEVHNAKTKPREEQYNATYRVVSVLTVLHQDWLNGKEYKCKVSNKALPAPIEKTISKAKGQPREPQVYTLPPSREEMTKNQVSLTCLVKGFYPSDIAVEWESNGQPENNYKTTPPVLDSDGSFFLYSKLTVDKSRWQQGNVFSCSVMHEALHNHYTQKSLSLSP
light: DIQMTQSPSSVSASVGDRVTITCQASESIYSGLAWYQQKPGQPPKLLIYDHSTLASGVPSRFSGSGSGTEYALTISSLQPEDFATYYCQHADYAHHSDNVFGGGTKVEIKRTVAAPSVFIFPPSDEQLKSGTASVVCLLNNFYPREAKVQWKVDNALQSGNSQESVTEQDSKDSTYSLSSTLTLSKADYEKHKVYACEVTHQGLSSPVTKSFNRGEC
notes: copies: 2 + 2
B2: Ab1H-P840/Ab1L (antibody, human IgG1, kappa, name in EU numbering)
heavy: QVQLVESGGGLVQPGGSLRLSCAASGFTLSNHDMTWVRQAPGKGLEYVSIINTYGNHWYANWASGRFTISRDNSKNTVYLQIDSLRAEDTATYYCARETHHGSSGIDHWGQGTLVTVSSASTKGPSVFPLAPSSKSTSGGTAALGCLVKDYFPEPVTVSWNSGALTSGVHTFPAVLQSSGLYSLSSVVTVPSSSLGTQTYICNVNHKPSNTKVDKKVEPKSCDKTHTCPPCPAPELLGGDSVFLFPPKPKDTLMISRTPEVTCVVVDVSHEDPEVKFNWYVDGVEVHNAKTKPREEQYNATYRVVSVLTVLHQDWLNGKEYKCKVSNKALPAPIEKTISKAKGQPREPQVYTLPPSREEMKKNQVSLTCLVKGFYPSDIAVEWESNGQPENNYKTTPPVLDSDGSFFLYSKLTVDKSRWQQGNVFSCSVMHEALHNHYTQKSLSLSP
light: B1 light
notes: copies: 2 + 2
B3: Ab1H-P841/Ab1L (antibody, human IgG1, kappa, name in EU numbering)
heavy: B2 heavy with K361T, N363R
light: B1 light
notes: copies: 2 + 2
B4: Ab1H-P842/Ab1L (antibody, human IgG1, kappa, name in EU numbering)
heavy: B2 heavy with K361T, Q364K
light: B1 light
notes: copies: 2 + 2
B5: Ab1H-P909/Ab1L (antibody, human IgG1, kappa, name in EU numbering)
heavy: B2 heavy with K361T, H437R
light: B1 light
notes: copies: 2 + 2
B6: Ab1H-P837/Ab1L (antibody, human IgG1, kappa, name in EU numbering)
heavy: B2 heavy with E347R, K361T
light: B1 light
B7: Ab1H-P852/Ab1L (antibody, human IgG1, kappa, name in EU numbering)
heavy: B2 heavy with K361T, S426K
light: B1 light
notes: copies: 2 + 2
B8: Ab1H-P845/Ab1L (antibody, human IgG1, kappa, name in EU numbering)
heavy: B2 heavy with K361T, E384K
light: B1 light
notes: copies: 2 + 2
B9: Ab1H-P854/Ab1L (antibody, name in EU numbering)
heavy: B2 heavy with K361T, L445R
light: B1 light
notes: copies: 2 + 2
B10: Ab1H-P851/Ab1L (antibody, human IgG1, kappa, name in EU numbering)
heavy: B2 heavy with K361T, N423R
light: B1 light
notes: copies: 2 + 2
B11: Ab1H-P918/Ab1L (antibody, human IgG1, kappa, name in EU numbering)
heavy: B2 heavy with L330R, K361T
light: B1 light
notes: copies: 2 + 2
B12: Ab1H-P843/Ab1L (antibody, human IgG1, kappa, name in EU numbering)
heavy: B2 heavy with K361T, E382R
light: B1 light
notes: copies: 2 + 2
B13: Ab1H-P912/Ab1L (antibody, human IgG1, kappa, name in EU numbering)
heavy: B2 heavy with T309R, K361T
light: B1 light
notes: copies: 2 + 2
B14: Ab1H-P920/Ab1L (antibody, human IgG1, kappa, name in EU numbering)
heavy: B2 heavy with A332R, K361T
light: B1 light
notes: copies: 2 + 2
B15: Ab1H-P917/Ab1L (antibody, human IgG1, kappa, name in EU numbering)
heavy: B2 heavy with A329R, K361T
light: B1 light
notes: copies: 2 + 2
B16: Ab1H-P908/Ab1L (antibody, human IgG1, kappa, name in EU numbering)
heavy: B2 heavy with K361T, N436R
light: B1 light
notes: copies: 2 + 2
B17: Ab1H-P914/Ab1L (antibody, human IgG1, kappa, name in EU numbering)
heavy: B2 heavy with K361T, D401R
light: B1 light
notes: copies: 2 + 2
B18: Ab1H-P906/Ab1L (antibody, human IgG1, kappa, name in EU numbering)
heavy: B2 heavy with K361T, G387R
light: B1 light
notes: copies: 2 + 2
B19: Ab1H-P828/Ab1L (antibody, human IgG1, kappa, name in EU numbering)
heavy: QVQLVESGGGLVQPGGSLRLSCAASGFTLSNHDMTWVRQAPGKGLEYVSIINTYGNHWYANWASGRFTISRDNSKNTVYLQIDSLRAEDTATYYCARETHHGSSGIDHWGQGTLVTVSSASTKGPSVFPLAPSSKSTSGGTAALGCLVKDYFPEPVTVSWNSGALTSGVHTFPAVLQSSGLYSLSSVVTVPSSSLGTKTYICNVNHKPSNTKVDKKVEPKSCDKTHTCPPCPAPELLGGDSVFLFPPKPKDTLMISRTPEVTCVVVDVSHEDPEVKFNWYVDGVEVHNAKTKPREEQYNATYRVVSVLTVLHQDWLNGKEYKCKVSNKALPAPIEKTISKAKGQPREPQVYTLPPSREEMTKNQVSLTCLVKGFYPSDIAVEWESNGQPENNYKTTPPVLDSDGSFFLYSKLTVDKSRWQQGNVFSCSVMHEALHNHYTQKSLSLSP
light: B1 light
notes: copies: 2 + 2
B20: Ab1H-P926/Ab1L (antibody, human IgG1, kappa, name in EU numbering)
heavy: B2 heavy with Q297R, K361T
light: B1 light
notes: copies: 2 + 2
B21: Ab1H-P905/Ab1L (antibody, human IgG1, kappa, name in EU numbering)
heavy: B2 heavy with K361T, N386R
light: B1 light
notes: copies: 2 + 2
B22: Ab1H-P910/Ab1L (antibody, human IgG1, kappa, name in EU numbering)
heavy: B2 heavy with L311R, K361T
light: B1 light
notes: copies: 2 + 2
B23: Ab1H-P848/Ab1L (antibody, human IgG1, kappa, name in EU numbering)
heavy: B2 heavy with K361T, S417R
light: B1 light
notes: copies: 2 + 2
B24: Ab1H-P923/Ab1L (antibody, human IgG1, kappa, name in EU numbering)
heavy: B2 heavy with Q313R, K361T
light: B1 light
notes: copies: 2 + 2
B25: Ab1H-P847/Ab1L (antibody, human IgG1, kappa, name in EU numbering)
heavy: B2 heavy with K361T, N391K
light: B1 light
notes: copies: 2 + 2
B26: Ab1H-P849/Ab1L (antibody, human IgG1, kappa, name in EU numbering)
heavy: B2 heavy with K361T, Q420R
light: B1 light
notes: copies: 2 + 2
B27: Ab1H-P829/Ab1L (antibody, human IgG1, kappa, name in EU numbering)
heavy: B2 heavy with S339R, K361T
light: B1 light
notes: copies: 2 + 2
B28: Ab1H-P915/Ab1L (antibody, human IgG1, kappa, name in EU numbering)
heavy: B2 heavy with K361T, S402R
light: B1 light
notes: copies: 2 + 2
B29: Ab1H-P850/Ab1L (antibody, human IgG1, kappa, name in EU numbering)
heavy: B2 heavy with K361T, Q421K
light: B1 light
notes: copies: 2 + 2
B30: Ab1H-P846/Ab1L (antibody, human IgG1, kappa, name in EU numbering)
heavy: B2 heavy with K361T, Q388K
light: B1 light
notes: copies: 2 + 2
B31: Ab1H-P924/Ab1L (antibody, human IgG1, kappa, name in EU numbering)
heavy: B2 heavy with N317R, K361T
light: B1 light
notes: copies: 2 + 2
B32: Ab1H-P921/Ab1L (antibody, human IgG1, kappa, name in EU numbering)
heavy: B2 heavy with P333R, K361T
light: B1 light
notes: copies: 2 + 2
B33: Ab1H-P925/Ab1L (antibody, human IgG1, kappa, name in EU numbering)
heavy: B2 heavy with Y298R, K361T
light: B1 light
notes: copies: 2 + 2
B34: Ab1H-P919/Ab1L (antibody, human IgG1, kappa, name in EU numbering)
heavy: B2 heavy with P331R, K361T
light: B1 light
notes: copies: 2 + 2
B35: Ab1H-P831/Ab1L (antibody, human IgG1, kappa, name in EU numbering)
heavy: B2 heavy with K361T, P389R
light: B1 light
notes: copies: 2 + 2
B36: Ab1H-P844/Ab1L (antibody, human IgG1, kappa, name in EU numbering)
heavy: B2 heavy with K361T, E384Q
light: B1 light
notes: copies: 2 + 2

Target: T1, soluble human FcγRIIb
Test: SPR, Ab-IgE complex over captured hFcγRIIb, pH 7.4, 25C
Protocol: Fc region variant-containing antibody binding assays between soluble human FcγRIIb (a.k.a. “hFcγRIIb”) and antigen-antibody complexes were performed using BIACORE® T200 (GE Healthcare). Soluble hFcγRIIb was produced in the form of a His-tagged molecule using methods known in the art. An appropriate amount of an anti-His antibody was fixed onto Sensor chip CM5 (GE Healthcare) by the amine coupling method using a His capture kit (GE Healthcare) to capture hFcγRIIb. Next, an antibody-antigen complex and a running buffer (as a reference solution) was injected, and interaction was allowed to take place with the hFcγRIIb captured onto the sensor chip. 20 mM N-(2-Acetamido)-2-aminoethanesulfonic acid, 150 mM NaCl, 1.2 mM CaCl₂, and 0.05% (w/v) Tween 20 at pH 7.4 was used as the running buffer, and the respective buffer was also used to dilute the soluble hFcγRIIb. To regenerate the sensor chip, 10 mM glycine-HCl at pH 1.5 was used. All measurements were carried out at 25° C. Analyses were performed based on binding (RU) calculated from sensorgrains obtained by the measurements, and relative values when the binding amount of P600 was defined as 1.00 are shown. To calculate the parameters, the BIACORE® T100 Evaluation Software (GE Healthcare) was used.

Binder | relative binding (RU), P600=1.00
B1 | 1 fold
B2 | 2.25 fold
B3 | 1.86 fold
B4 | 2.37 fold
B5 | 0.73 fold
B6 | 1.88 fold
B7 | 1.4 fold
B8 | 1.38 fold
B9 | 1.93 fold
B10 | 1.43 fold
B11 | -0.06 fold
B12 | -0.04 fold
B13 | 0.24 fold
B14 | 0.01 fold
B15 | -0.05 fold
B16 | 0.42 fold
B17 | 1.72 fold
B18 | 1.74 fold

Binder | relative binding (RU), P600=1.00
B19 | 1.27 fold
B20 | -0.06 fold
B21 | 1.34 fold
B22 | 1.73 fold
B23 | 1.38 fold
B24 | 1.63 fold
B25 | 1.57 fold
B26 | 2.21 fold
B27 | 0.17 fold
B28 | 0.85 fold
B29 | 2.22 fold
B30 | 1.71 fold
B31 | 2.08 fold
B32 | -0.07 fold
B33 | -0.05 fold
B34 | -0.06 fold
B35 | 3.85 fold
B36 | 1.24 fold
